Measurements: article doi:10.1101/465930

Target: FGFR1 extracellular domain (UniProt P11362)
Assay: optical biosensor

UniProt P11362, sequence (P11362 22-376): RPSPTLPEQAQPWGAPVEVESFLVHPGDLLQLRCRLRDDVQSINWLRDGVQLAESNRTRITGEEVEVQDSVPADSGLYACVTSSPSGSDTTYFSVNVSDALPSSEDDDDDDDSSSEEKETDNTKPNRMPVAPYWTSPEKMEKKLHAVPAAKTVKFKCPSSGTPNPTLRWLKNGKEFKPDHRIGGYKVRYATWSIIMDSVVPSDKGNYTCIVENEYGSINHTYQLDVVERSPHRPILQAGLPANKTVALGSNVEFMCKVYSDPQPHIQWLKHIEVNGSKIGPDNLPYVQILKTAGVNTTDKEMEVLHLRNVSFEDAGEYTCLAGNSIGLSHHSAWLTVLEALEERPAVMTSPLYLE

## Ncad-Fc (from UniProt P19022 160-724) (Fc fusion)
  Kd: 106 nM
